Test results from the supplement of paper PMC7125110.
± gives the standard error. For part of these data: Fewer inactive variants are shown than the library holds.

B1: glmS ribozyme (parent)
chain: AUAAAAGCGCCAGAACUACAGAAAUGUAGUUGACGAGGAGGAGGUUUAUCGAAUUUUCGGCGGAUGCCUCCAAA

Tests used:
Settings in all cases: with glucosamine-6-phosphate
glucosamine-6-phosphate [1] = variants of: B1; assay: kcat; higher = faster cleavage; RNA array
In short: (§1)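 E. coli RNA polymerase transcribed barcoded ribozyme variants in situ on sequenced MiSeq chips, which were tracked via a hybridised Cy3 probe at 37 °C. Tiles were imaged over ~14 h after glucosamine-6-phosphate (40 μM to 10 mM) in HEPES/KCl/Mg(OAc)2 buffer was flowed in. Normalised per-tile medians were fit to one- or two-exponential decays for kobs, and kcat and KM came from weighted Michaelis–Menten fits.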

glucosamine-6-phosphate [2] = variants of: B1; assay: KM; higher = weaker cofactor use; RNA array
In short: as §1

glucosamine-6-phosphate [3] = variants of: B1; assay: self-cleavage kobs at 640 uM GlcN6P; higher = faster cleavage; RNA array
In short: as §1

glucosamine-6-phosphate [4] = variants of: B1; assay: self-cleavage kobs at 2500 uM GlcN6P; higher = faster cleavage; RNA array
In short: as §1

glucosamine-6-phosphate [5] = variants of: B1; assay: self-cleavage kobs at 10000 uM GlcN6P; higher = faster cleavage; RNA array
In short: as §1

glucosamine-6-phosphate [6] = variants of: B1; assay: self-cleavage kobs at 40 uM GlcN6P; higher = faster cleavage; RNA array
In short: as §1

glucosamine-6-phosphate [7] = variants of: B1; assay: self-cleavage kobs at 160 uM GlcN6P; higher = faster cleavage; RNA array
In short: as §1

Variant | kcat (glucosamine-6-phosphate [1]) [s⁻¹] | KM (glucosamine-6-phosphate [2]) [mM] | self-cleavage kobs at 640 uM GlcN6P (glucosamine-6-phosphate [3]) [s⁻¹] | self-cleavage kobs at 2500 uM GlcN6P (glucosamine-6-phosphate [4]) [s⁻¹] | self-cleavage kobs at 10000 uM GlcN6P (glucosamine-6-phosphate [5]) [s⁻¹] | self-cleavage kobs at 40 uM GlcN6P (glucosamine-6-phosphate [6]) [s⁻¹] | self-cleavage kobs at 160 uM GlcN6P (glucosamine-6-phosphate [7]) [s⁻¹]
A14U U45G C68U | 0.000104 ± 5.1e-06 | 0.786 ± 0.16 | 4.96e-05 ± 1.7e-05 | 7.43e-05 ± 2.3e-05 | 9.78e-05 ± 1.7e-05 | – | –
U31A U65A | 0.00266 ± 0.00015 | 3.82 ± 0.35 | 0.000399 ± 5.4e-05 | 0.00107 ± 0.00022 | 0.00191 ± 0.00022 | 2.41e-05 ± 1.1e-05 | 9.46e-05 ± 3.5e-05
A15U U57G C58U C70A | 6.42e-05 ± 1.8e-05 | – | 9.48e-05 ± 3.5e-05 | 7.42e-05 ± 2e-05 | – | – | 4.86e-05 ± 1.7e-05
C11U C16G | 0.000546 ± 4.2e-05 | 2.85 ± 0.41 | 0.000104 ± 1.9e-05 | 0.000258 ± 4.8e-05 | 0.000423 ± 5.7e-05 | – | –
U47A C67U | 0.00772 ± 0.0031 | – | 0.003 ± 0.00062 | 0.00497 ± 0.0016 | 0.00638 ± 0.00092 | 0.00025 ± 3.1e-05 | 0.000428 ± 7.1e-05
A5U | 0.0156 ± 0.0027 | 0.661 ± 0.17 | 0.00869 ± 0.0012 | 0.0143 ± 0.0042 | 0.0129 ± 0.003 | 0.000961 ± 0.00015 | 0.00247 ± 0.00049
G37A G66A | 0.00157 ± 0.00017 | 4.29 ± 0.74 | 0.0002 ± 5.4e-05 | 0.000527 ± 0.0001 | 0.00114 ± 0.00018 | 1.72e-05 ± 8.5e-06 | 6.39e-05 ± 2e-05
G32A C70G | 0.000111 ± 1.6e-05 | – | 9.43e-05 ± 1.5e-05 | 6.07e-05 ± 2.4e-05 | 0.00011 ± 1.3e-05 | – | 2.97e-05 ± 1.1e-05
G37A G41A | 0.000353 ± 0.00012 | – | 3.79e-05 ± 9.7e-06 | 0.00016 ± 2.5e-05 | 0.000229 ± 4.8e-05 | – | 3.21e-05 ± 1.4e-05
G29U A53G | 0.00448 ± 0.0019 | – | 0.000805 ± 0.00012 | 0.0021 ± 0.00029 | 0.00417 ± 0.00059 | 0.000165 ± 2.5e-05 | 0.000262 ± 5.4e-05
A33U C61U | < 1e-05 | – | < 1e-05 | – | – | – | –
A42U A53C | 0.000148 ± 2.3e-05 | 3.05 ± 1.5 | – | 7.29e-05 ± 2e-05 | 0.000113 ± 1.6e-05 | – | –
G13U U65G | 0.000372 ± 2.8e-05 | 3.75 ± 0.54 | 5.82e-05 ± 1.2e-05 | 0.000136 ± 2.7e-05 | 0.000276 ± 3.5e-05 | – | –
C11A A15U U65G C71U | < 1e-05 | – | – | – | – | – | –
